Measurements: patent US20050282743A1, “Molecular interactions in cells” (Arbor Vita Corporation, priority 2001, published 2005)
One block for each binder: values may come before it.

What was measured:
Assay in all cases: G' assay
[1] = molecular target: T1, GST-EZRIN Binding Protein 50 PDZ domain 2 (Homo sapiens (Human)), O14745
T1 chain: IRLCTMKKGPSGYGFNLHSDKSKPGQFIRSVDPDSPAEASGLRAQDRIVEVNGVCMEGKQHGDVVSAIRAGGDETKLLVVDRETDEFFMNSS

[2] = molecular target: T2, GST-LIM-RIL PDZ domain 1 (Homo sapiens (Human)), P50479
T2 chain: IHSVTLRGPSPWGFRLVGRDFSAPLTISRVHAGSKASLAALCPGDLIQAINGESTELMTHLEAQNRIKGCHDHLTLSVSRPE

[3] = molecular target: T3, GST-APXL-1 PDZ domain 1 (Homo sapiens (Human)), Q13796
T3 chain: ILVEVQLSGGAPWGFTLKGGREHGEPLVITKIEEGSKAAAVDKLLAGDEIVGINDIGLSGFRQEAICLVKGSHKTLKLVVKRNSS

[4] = molecular target: T4, GST-INADL PDZ domain 3 (Homo sapiens (Human)), Q8NI35
T4 chain: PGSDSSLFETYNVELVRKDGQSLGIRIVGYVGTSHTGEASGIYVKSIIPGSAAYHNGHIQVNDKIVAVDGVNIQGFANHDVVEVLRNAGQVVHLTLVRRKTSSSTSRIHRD

[5] = molecular target: GST-Atrophin-1 Interacting Protein PDZ domain 5 (Rattus norvegicus (Rat)), O88382
[6] = molecular target: T5, GST-KIAA0807(S) PDZ domain 1 (Homo sapiens (Human)), Q6P0Q8
T5 chain: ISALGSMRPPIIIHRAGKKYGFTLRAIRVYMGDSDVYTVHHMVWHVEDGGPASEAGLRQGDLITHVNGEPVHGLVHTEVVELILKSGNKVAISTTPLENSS

[7] = molecular target: T6, GST-LIM Mystique PDZ domain 1 (Homo sapiens (Human)), Q96JY6
T6 chain: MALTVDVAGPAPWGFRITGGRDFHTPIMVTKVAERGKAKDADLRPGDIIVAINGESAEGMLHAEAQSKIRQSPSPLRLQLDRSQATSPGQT

[8] = molecular target: T7, GST-FLJ 10324 PDZ domain 1 [GST: P08515]
T7 chain: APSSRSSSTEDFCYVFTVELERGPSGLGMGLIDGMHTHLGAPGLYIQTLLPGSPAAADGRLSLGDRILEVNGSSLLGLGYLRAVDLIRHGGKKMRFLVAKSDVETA

[9] = molecular target: T8, GST-EZRIN Binding Protein 50 PDZ domain 1 (Homo sapiens (Human)), O14745
T8 chain: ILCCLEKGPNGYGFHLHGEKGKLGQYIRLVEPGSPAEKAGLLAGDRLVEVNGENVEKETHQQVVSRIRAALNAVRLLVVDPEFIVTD

[10] = molecular target: GST-KIAA0147 PDZ domain 1 (Homo sapiens (Human)), Q14160
[11] = molecular target: GST-KIAA807 [GST: P08515]
[12] = molecular target: GST-BAI-1 Associated Protein PDZ domain 6 (Homo sapiens (Human)), Q96QZ7
[13] = molecular target: T9, GST-HEMBA 1003117 PDZ domain 1 (Homo sapiens (Human)), Q96JH8
T9 chain: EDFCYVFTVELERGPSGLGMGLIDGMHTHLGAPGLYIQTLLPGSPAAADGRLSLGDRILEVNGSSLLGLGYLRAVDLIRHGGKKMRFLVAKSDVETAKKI

[14] = molecular target: T10, GST-Shank 3 PDZ domain 1 (human (hypothetical, computer cloned)), Q9BYB0
T10 chain: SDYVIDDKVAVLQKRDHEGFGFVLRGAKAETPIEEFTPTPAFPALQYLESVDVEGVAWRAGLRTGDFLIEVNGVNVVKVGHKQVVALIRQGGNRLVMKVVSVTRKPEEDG

[15] = molecular target: T11, GST-KIAA0382 PDZ domain 1 (Canis lupus familiaris (Dog) (Canis familiaris)), A0A8I3
T11 chain: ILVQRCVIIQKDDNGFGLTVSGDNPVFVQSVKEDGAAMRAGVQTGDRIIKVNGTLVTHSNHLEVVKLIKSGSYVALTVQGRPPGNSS

[16] = molecular target: T12, GST-Shank 1 PDZ domain 1 (Homo sapiens (Human)), Q9UPX8
T12 chain: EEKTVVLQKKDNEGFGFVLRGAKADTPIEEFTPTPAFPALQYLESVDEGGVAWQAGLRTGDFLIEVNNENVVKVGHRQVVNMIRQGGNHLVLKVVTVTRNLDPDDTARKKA

[17] = molecular target: GST-KIAA1634 PDZ domain 5 (Homo sapiens (Human)), Q5TCQ9
[18] = molecular target: T13, GST-KIAA1719 PDZ domain 6 (Homo sapiens (Human)), Q9C0E4
T13 chain: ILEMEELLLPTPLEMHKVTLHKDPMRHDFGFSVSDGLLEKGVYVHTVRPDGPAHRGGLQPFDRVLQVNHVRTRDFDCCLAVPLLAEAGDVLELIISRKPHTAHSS

[19] = molecular target: GST-PAR3 PDZ domain 3 (Homo sapiens (Human)), Q8TEW0
[20] = molecular target: T14, GST-MUPP1 PDZ domain 11 (Homo sapiens (Human)), O75970
T14 chain: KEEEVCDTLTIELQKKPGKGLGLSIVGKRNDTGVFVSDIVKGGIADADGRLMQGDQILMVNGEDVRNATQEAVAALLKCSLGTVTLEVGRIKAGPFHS

[21] = molecular target: T15, GST-MINT1 PDZ domain 2 (Mus musculus (Mouse)), B2RUJ5
T15 chain: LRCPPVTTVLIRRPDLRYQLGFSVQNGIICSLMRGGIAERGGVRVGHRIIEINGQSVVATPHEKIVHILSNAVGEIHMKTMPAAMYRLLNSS

[22] = molecular target: T16, GST-PDZK1 PDZ domains 2, 3, 4, Q5T2W1
T16 chain: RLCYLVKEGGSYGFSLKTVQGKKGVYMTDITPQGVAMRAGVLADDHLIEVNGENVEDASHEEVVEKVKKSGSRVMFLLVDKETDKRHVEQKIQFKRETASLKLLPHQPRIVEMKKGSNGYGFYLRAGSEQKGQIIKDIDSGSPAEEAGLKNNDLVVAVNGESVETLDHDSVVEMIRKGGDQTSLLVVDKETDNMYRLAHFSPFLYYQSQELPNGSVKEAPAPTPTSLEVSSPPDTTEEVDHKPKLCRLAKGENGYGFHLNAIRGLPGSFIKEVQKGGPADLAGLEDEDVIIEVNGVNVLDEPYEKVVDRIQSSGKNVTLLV

[23] = molecular target: T17, GST-Syntrophin 1 alpha PDZ domain 1 (Homo sapiens (Human)), Q13424
T17 chain: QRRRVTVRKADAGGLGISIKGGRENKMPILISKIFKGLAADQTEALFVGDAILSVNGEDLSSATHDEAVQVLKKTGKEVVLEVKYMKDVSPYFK

[24] = molecular target: T18, GST-AF6 PDZ domain 1 (Homo sapiens (Human)), P55196
T18 chain: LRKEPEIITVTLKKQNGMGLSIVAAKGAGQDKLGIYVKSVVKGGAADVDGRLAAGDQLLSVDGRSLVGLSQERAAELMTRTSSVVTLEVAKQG

[25] = molecular target: GST-KIAA1634 PDZ domain 1 (Homo sapiens (Human)), Q5TCQ9
[26] = molecular target: T19, GST-MINT1 PDZ domains 1, 2, Q02410
T19 chain: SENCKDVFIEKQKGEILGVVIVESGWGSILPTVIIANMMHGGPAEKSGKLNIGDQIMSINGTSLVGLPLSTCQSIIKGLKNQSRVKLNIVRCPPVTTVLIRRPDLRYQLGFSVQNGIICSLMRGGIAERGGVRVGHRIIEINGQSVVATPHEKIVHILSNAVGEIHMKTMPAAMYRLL

[27] = molecular target: T20, GST-PTPL1 PDZ domain 4 (Homo sapiens (Human)), Q12923
T20 chain: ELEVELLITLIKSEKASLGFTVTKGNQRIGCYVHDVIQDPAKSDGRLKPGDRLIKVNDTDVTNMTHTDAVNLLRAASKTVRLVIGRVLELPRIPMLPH
Further: key of the grades not given here.

Chain of GST-KIAA807 [GST: P08515] (P08515 whole entry, the tested form may be a part): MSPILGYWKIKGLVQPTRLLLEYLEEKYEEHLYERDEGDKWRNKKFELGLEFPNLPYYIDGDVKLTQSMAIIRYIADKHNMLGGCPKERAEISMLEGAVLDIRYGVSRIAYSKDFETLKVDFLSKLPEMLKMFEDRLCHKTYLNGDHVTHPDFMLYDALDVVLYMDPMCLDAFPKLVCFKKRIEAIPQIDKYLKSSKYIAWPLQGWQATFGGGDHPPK
Chain of GST-KIAA1634 PDZ domain 5 (Homo sapiens (Human)), Q5TCQ9 (Q5TCQ9 other isoform, or with tags, fused parts or gaps): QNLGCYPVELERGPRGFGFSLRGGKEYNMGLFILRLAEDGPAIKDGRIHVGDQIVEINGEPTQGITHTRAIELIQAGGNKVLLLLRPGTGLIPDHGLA
Chain of GST-Atrophin-1 Interacting Protein PDZ domain 5 (Rattus norvegicus (Rat)), O88382 (O88382 1128-1225): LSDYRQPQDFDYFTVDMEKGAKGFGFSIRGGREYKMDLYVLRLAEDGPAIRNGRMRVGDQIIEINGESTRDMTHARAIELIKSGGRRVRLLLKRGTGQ
Chain of GST-KIAA0147 PDZ domain 1 (Homo sapiens (Human)), Q14160 (Q14160 other isoform, or with tags, fused parts or gaps): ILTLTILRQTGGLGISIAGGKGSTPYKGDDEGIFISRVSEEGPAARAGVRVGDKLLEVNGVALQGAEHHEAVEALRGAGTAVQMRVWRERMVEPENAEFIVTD
Chain of GST-KIAA1634 PDZ domain 1 (Homo sapiens (Human)), Q5TCQ9 (Q5TCQ9 401-502): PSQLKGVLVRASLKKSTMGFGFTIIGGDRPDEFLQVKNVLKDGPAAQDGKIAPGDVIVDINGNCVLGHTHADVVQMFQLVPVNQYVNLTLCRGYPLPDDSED
Chain of GST-BAI-1 Associated Protein PDZ domain 6 (Homo sapiens (Human)), Q96QZ7 (Q96QZ7 1143-1233): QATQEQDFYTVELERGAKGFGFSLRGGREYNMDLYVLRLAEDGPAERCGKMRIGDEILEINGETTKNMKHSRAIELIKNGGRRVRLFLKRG
Chain of GST-PAR3 PDZ domain 3 (Homo sapiens (Human)), Q8TEW0 (Q8TEW0 579-681): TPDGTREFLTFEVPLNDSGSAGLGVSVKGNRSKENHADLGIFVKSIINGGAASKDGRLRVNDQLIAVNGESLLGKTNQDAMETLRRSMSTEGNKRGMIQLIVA

- Classification [1]: 2 A450 class
- Classification [2]: 1 A450 class
- Classification [3]: 2 A450 class
- Classification [4]: 1 A450 class
- Classification [5]: 1 A450 class
- Classification [6]: 4 A450 class
- Classification [7]: 1 A450 class
- Classification [8]: 1 A450 class
- Classification [9]: 1 A450 class
- Classification [10]: 1 A450 class
- Classification [11]: 5 A450 class
- Classification [12]: 1 A450 class
- Classification [13]: 1 A450 class
- Classification [14]: 1 A450 class
- Classification [15]: 1 A450 class
- Classification [16]: 1 A450 class
- Classification [17]: 1 A450 class
Binder: LASKSAEEGKQIPDSLSTDL (modifications not checked) [DOCK2]

- Classification [18]: 1 A450 class
- Classification [19]: 2 A450 class
Binder: QGDPALQDAGDSSRKEYFI (modifications not checked) [Glycophorin C]

- Classification [18]: 1 A450 class
- Classification [20]: 1 A450 class
- Classification [15]: 1 A450 class
- Classification [21]: 1 A450 class
Binder: RIAYSLLGLKDQVNTVGIPI (modifications not checked) [ephrin A2]

- Classification [3]: 1 A450 class
- Classification [6]: 1 A450 class
- Classification [22]: 1 A450 class
- Classification [11]: 1 A450 class
- Classification [16]: 1 A450 class
- Classification [23]: 1 A450 class
Binder: DAKLKSDGTIAAITEKETHF (modifications not checked) [GABA transporter 3]

- Classification [24]: 2 A450 class
- Classification [25]: 1 A450 class
- Classification [26]: 2 A450 class
Binder: SSPDSSYQGKGFVMSRAMYV (modifications not checked) [Nectin 2]

- Classification [24]: 1 A450 class
- Classification [27]: 1 A450 class
- Classification [4]: 1 A450 class
Binder: YSQPSARSEGEFKQTSSFLV (modifications not checked) [JAM (junctional adhesion molecule)]
